# The DeepSol protein solubility set
# Assay: soluble on expression in E. coli; label from the status in PepcDB or PDB records
row,Sequence,soluble on expression in E. coli
1,MSPLPPPPDIQHEFDKNQDPHETNLALRRLYPQIRERENERHIPRRWDLRQASSYLDISQSGYGVTFKKNVTVAEDKDPAGVVRADAFIQQCIGVYYFEVRILEGHSGCMGIGLSKKDCDLNRMPGWDPGCFGYHGDDGNFFLASGVGQAYGPKFGPGDVIGCGIDTFYHYVFFTKNGKHLGIAHTSPTALKELYPTVGFKTRGEKLVANFGVKPFEFDFEAYRQHLMNKKIHLLENIKMPENFGKQMNRIVSSFLGTTGALATLQKFEETTKPEVPIDHEYYAQRKEITDMILKAARGAEIHEKIEKYFPGLVEDDANVHLLILCLRYIDLANTLHEPPNCFTNSTTGRSPSPTEIRARPPKLLKGSQCKTTKRTREAQRRSANSQVHTPPPVRLTNAKATEELYLKDAKIERFYIDQDTEEEMLHIDGVSMPTKMFVELEKSGQYRKLNYILKMGREIMKVAGEMRGNIAPEARKVVEIATSMVSSPERPAKHPLSFALRRFIANSVVDMICYYVHHKREGKSTKRPRGTSTGEIPGSSSLRMFSELRNLFTGWKGLHIDYSTNDKKMAGIHFVRKMILEEPNFNEKEIIYTDEPMELAHERPDPPPREIIRQQRNEFQF,not soluble
2,MEKQYRVLLYYKYVPIEDPEAFREQHLAFCKELGLLGRILVSSEGINGTVSGTVEQTEKYMETMKADPRFADMVFKIDEAEGHAFKKIFVRHKKELVTLRLEDDVDPNETTGQHLKPAEFYEKMQDPNTIVIDARNDYEYDLGHFRGAVRPDIEAFRELPEWIEEHKDMLEGKKILTYCTGGVRCEKFSGWLVKQGFEDVAQLDGGIVTYGKDPEVQGKLWDGQCYVFDERISVPVNRVEHVIVGKDYFTGEPCERYVNCANPSCNKKMICTPENEYKYMRSCSHECRTNPRNLYVKEHNMTEEEVNARLAAIETEDHAAAE,not soluble
3,MFQQQKDWETRENAFAAFTMGPLTDFWRQRDEAEFTGVDDIPVRFVRFRAQHHDRVVVICPGRIESYVKYAELAYDLFHLGFDVLIIDHRGQGRSGRLLADPHLGHVNRFNDYVDDLAAFWQQEVQPGPWRKRYILAHSMGGAISTLFLQRHPGVCDAIALTAPMFGIVIRMPSFMARQILNWAEAHPRFRDGYAIGTGRWRALPFAINVLTHSRQRYRRNLRFYADDPTIRVGGPTYHWVRESILAGEQVLAGAGDDATPTLLLQAEEERVVDNRIHDRFCELRTAAGHPVEGGRPLVIKGAYHEILFEKDAMRSVALHAIVDFFNRHNSPSGNRSTEV,soluble
4,GPGSMDVVATPLWSSPPCGSPMAGTVSSGNPLFHVGRSYYRSAAKAYNMTRYVVESLKLDETVLATSMAYWHTFVDRLELRKFDEIVLSASCVFLASKVEHYKVRLNRVIALVFEISGEGDEMEGWRRMLLEMELLVCHTLGFNFQIIHPMKRIVELVPEDHTQVLECAHRLFLLSFMTPLCVRVPADEVAEALVYLAADGAGQLEPYAGKFRCDAVERREGIINVMIDALAVMRKNTSLPKVDDMIVARRKRMREQESFRPSVAHSSGGTGSLDVTPSAFLVE,soluble
5,MHHQSVLHSGYFHPLLRSWQTAASTVSASNLIYPIFVTDVPDDVQPIASLPGVARYGVNQLEEMLRPLVEAGLRCVLIFGVPSRVPKDEQGSAADSEDSPTIEAVRLLRKTFPSLLVACDVCLCPYTSHGHCGLLSENGAFLSEESRQRLAEVALAYAKAGCQVVAPSDMMDGRVEAIKAALLKHGLGNRVSVMSYSAKFASCFYGPFRDAAQSSPAFGDRRCYQLPPGARGLALRAVARDIQEGADMLMVKPGLPYLDMVREVKDKHPELPLAVYQVSGEFAMLWHGAQAGAFDLRTAVLETMTAFRRAGADIIITYFAPQLLKWLKEE,soluble
6,MGSDKIHHHHHHMDMIVTSKKSSRNANSGCAIHCNDCSMSELCIPFTLNANELEELDNIIERKKPVQKGDKLFQSGDGLKSLYAIRSGTIKSYTITQQGDEQITGFHLAGDVIGFDAIHKQAHQSFAEALETSMICEIPFDTLDSLAGTMPKLRQQIMRLMSHEIISDQEMILLLSKKNAEERLAAFIAKLANRFANRGFSPNEFRLSMTRGDIGNYLGLTVETISRLLGRFQKAQMIAVNGKYITIVDHQALNTLADHTEQ,not soluble
7,SQTLRIGYVSSLLYGLLPEIIYLFRQQNPEIHIELIECGTKDQINALKQGKIDLGFGRLKITDPAIRHIVLHKEQLKLAIHKHHHLNQFAATGVHLSQIIDEPMLLYPVSQKPNFATFIQSLFTELGLVPSKLTEIREIQLALGLVAAGEGVCIVPASAMDIGVKNLLYIPILDDDAYSPISLAVRNMDHSNYIPKILACVQEVFATHHIRPLIESILEHHHHHH,soluble
8,MSLAKKKEIKLEDALWKSADKLRKNIDAAEYKHIVLGLIFLRYISDSFMQKYEELLKEQDDGADPEDADEYLADNIFFVPEKSRYNYIRDNAKNPKIGKMLDEAMDEIEKHNDTLKGVLPKVYAKDNLDSKCLGELIDLIGNIAFDTGKSTDVLGHVFEYFLGEFALAEGKQGGQFYTPKCVVELLVTMLEPYKGRVFDPCCGSGGMFVQSEEFVKSHQGRLDDISIYGQESNQTTYKLAKMNLAIRKIESSQVIWNNEGSFLNDAHKDLKADFIIANPPFNDSDWSGELLENDGRWKYGVPPASNANYAWIQHFLYHLSPNGGVAGFVLAKGALTSNTTNEAAIRKALIEDDLIDCIVNLPAKLFLNTGIPASLWFIRRQKLPKTVKKTLFIDARDLGTRINRRNKTLNKDDINQIANIYKAWKNGTDYEDIKGFCKSVSIDEIRELSYVLTPGRYVGLADSDDEFDFDTRFNELLAKLKSQIKTEQELSEIILKNLEKIKEGHHHHHH,soluble
9,MGSDKIHHHHHHCGGGTERKGLEALVAEYKKLNPDVDFEIIDISYSSYMQKISLAVMSGDVPDLMTITYPFAPELRKYLIDLDPYIEKYLGITPKEYEDAFYNVVKPYIKDENGKIKYVPLHFTVQGLWVNVDYFEKAGIPFPPLGGREEPWTWEEFVEVLRKVKEANNLPYAMSMQYSAERIANYLAIRGAKVLDENLNLVLDKDPKAIKALEDFVNLFKENLCVPAEWVSGQSADNDFYGGVTAVYWAGSWETLDALSVEGKRFLPAYLPKDEYCFGVEGGRFFGAFKTGDKKKEEEAAKFALWAGWKGKGYDIYLKTTLHLSAYKDHKVDYGVPIMESVQKVFGYLAANAPEWIVTVRANPVWSRLYDPLRKQISLVIAGQQDLQTALKNIRAEYERIVEELGIK,not soluble
10,MAHHHHHHMNEAAPFCVAPQTWQGGLARYPVSQSHVWNNNIILQPEDIDVEVFNAMSQVESQYNKNEISVEDFEMLQLTFCLFTVNQSCYDLIPNGREIRVTQANAFEFFQRVHAAYDNMKQRPALNQPTQSNHRPRLRTSGTRLRLTGQDTDSLEWIRWTAQNNPAALAFHPDEPLRWAVVPRSRDFMIRVQPEGENTFVDPDHLTLFLDMLAVLLTEIERAISVFGYYPPNCVSAAPVECADEYSIYTSHTTRATRLPFPSQRVNSRGFSALHKFPMPVTAAAAAAAAAATEQNRRTVRRASSADLENQRALCSPTHDTGGLLAPFQEWNV,not soluble
11,MKFCKKCVMPDTKPDLHFDEEGVCDACRSQEAKNQNINWQEREKEFFELIKKYKKHPVYDCVIGVSGGKDSTFQVVKMLELGLNPLCVCFEPSVPTKIGRKNLDNLNHLGVDLIHIKRDPKVYQKLAREAFIRTGDNEWQNHLGIFTSVPRIAVNFGVPLIIWGESPQIEYGGPASSKNKNILGREWLEEFGGLLGNRASDMLGVNGITEKDLFLYTYPSDEELQRVGVTGLFLGYYFKWDYKKILEISKKYGFLTLDHPVETTYENFENLDCYSNHVHDYLKYCKYGFGRATDNACLDIRLGYISREEGVRLAQKYDGKPPKKAIKKYLEFSGFSEEEFQKIVDSFTNKKIFKRDENGKFIRDYDGSLVRKDECVLK,not soluble
12,MHSLTSRAPAEPDERLQALKRLIGKVTPQIGLNDVCKTSIPDLTFYRMDKLATPTYCIYEPCVAIILQGAKEITFGEQACEFAQGSFFVTSVDIPTLARVTAASEQTPYLSIVLKLDLSMLNDVIQTQAPLKQEATPEARGFASGMASSEMLDAFARLSALTGQPLEAGLMSDLIKREICVRLLLSCAGQWLRSVTRDGYRDKGIVRAIEWLKLHYDEPLHVAQLAQLSGMASSTLHHNFRKLTGTSPVQYQKSLRLQAARSLMLTERVDVNTAALRVGYESVAQFSREYARRFGAPPSRDIKYAREAGGRRD,not soluble
13,MAHHHHHHMSWRARFTPCVGSLTVWLNPKDPNCFGVRNWWRNNLPELQLLNPFCTFTIQELSFGEPHMYVNYTPTDQRMIRLAGATEEECEEIMEACITYGMNHAIIERPRTDDGGDLVNQPAITSFGYTESFTAKLEVAPPADIGQKTTEGVDDPGQKPRLYPRNVGCKLMP,not soluble
14,GQEVTMWGDSHGVAPNQVRRTLVKVALSESLPPGAKQIRIGFSLPKETEEKVTALYLLVSDSLAVRDLPDYKGRVSYDSFPISKEDRTTALSADSVAGRRFFYLAADIGPVASFSRSDTLTARVEEVAVDGRPLPLKELSPASRRLYRGY,not soluble
15,MGSDKIHHHHHHMENHTDIETLLTKYFEGNTTPPENEQIEAWLNADEEHLRIAKQLNTLYLAVDTQHITKKIDTEKALDKVKSRTKVRNLSWWGWTQRIAAILSVPLLIGVLALYPDRQQPVVTAQMVEIKTNAGMTTSVLLPDSTVVHLNSESSLRYPTFFAGDVRQVELNGEAYFDVTQHPRKRFIVSTPHHSQVEVYGTSFNVEAYGNETPISTTLIEGSVGFIYKNSKGKFQKSMLSPRQKLVYSPQTGDIKCYATSGESEISWKDGKLIFNDTPLDEVLHMLGKRFNVEFVLSNKGLKGCSFTGTFTHQRLERIMEYFRISSHIRWRYIDSADIKTEKLKIEVY,not soluble
16,SNAMSTHVTFDYSKALSFIGEHEITYLRDAVKVTHHAIHEKTGAGNDFLGWVDLPLQYDKEEFARIQKCAEKIKNDSDILLVVGIGGSYLGARAAIEMLNHSFYNTLSKEQRKTPQVLFVGQNISSTYMKDLMDVLEGKDFSINVISKSGTTTEPALAFRIFRKLLEEKYGKEEARKRIYATTDKARGALKTLADNEGYETFVIPDDVGGRFSVLTPVGLLPIAVSGLNIEEMMKGAAAGRDDFGTSELEENPAYQYAVVRNALYNKGKTIEMLINYEPALQYFAEWWKQLFGESEGKDQKGIFPSSANFSTDLHSLGQYVQEGRRDLFETVLKVGKSTHELTIESEENDLDGLNYLAGETVDFVNTKAYEGTLLAHSDGGVPNLIVNIPELNEYTFGYLVYFFEKACAMSGYLLGVNPFDQPGVEAYKKNMFALLGKPGFEELKAELEERLK,soluble
17,MGSDKIHHHHHHMTFRGGNTGAKHAVVVGSGPNGLTTAAVLAKAGWQVDVYEAAPTPGGAARSESVLGEGTISDLGAAGHPFGVASPAFHYLGLEDHGLEWAYSPFAMAHPLDYGRAGLLETSLPETAKKLGPDARRWKNLHQGLTKNIDKHLANLLGPVLKWPAHPIRMAKFGPFALLPAKRLASAAFETEEARSLFIGSAMHSVTPPHKPMTASLGLLFGALGMSRGWPVAVGGSGRIVDALVNVINHHGGTIHCDSQIDSLSQFRDTDAIILNQTPSQVLKLKGTDLNAGLPQRMSTWKHGPSSYKVDYLLDGPIPWSNPQVGQATTVHVGGSSEEIAFAEAEVAAGRMPERPFIILCQQQVADPSRAREGRHVVWAYAHVPRGFVDKRAALLITAQIERFAPGFRDRIVHSVDTNAEDLEAWNPNLVGGDITAGSALLRRMPTKIGEKTYMASASNAPGGGVHGMPGWWAAQAVLADHR,not soluble
18,MDILKLSDFIGNTLIVSLTEDRILVGSLVAVDAQMNLLLDHVEERMGSSSRMMGLVSVPRRSVKTIMIDKPVLQELTANKVELMANIV,not soluble
19,MTVTTKLIDYSDEEGNNFEGVLYIPKNVKQSKVPAVLIFPAFRGITHFEKDKGQQIAELGFVAFVADVYGKGVRPTERADAFATMGPLVSNRVEKLKPRLFAAVNTLKTFSEVDTSKIAAIGYCFGGLCVLDLARYNAGLKGVVSYHGTLKPIPDIALDPIVGTTVYVHHGDADFHIAKDQVDGFHEEMRTRQADFVFVSHANAVHAFTEPEADSFNAPGIGYNEKAAKRSWNATLDLFKEIF,not soluble
